Assay results reported in patent US20200216495A1 (ADRX, published 2020).
Where “and” joins values, the source holds several entries; their conditions need not be identical. Equal entries are not always repeated. Where two headings read alike, the source gives them in different places. Square brackets hold non-standard residues; d marks the D form. Ends that are not written are not given here. dCha = N[C@H](CC1CCCCC1)C(=O)O; dNle = CCCC[C@@H](N)C(=O)O

T1: Tau40 P301L protein (human)
T1 sequence: WIKIRR


Experiments:
[1] = biological target: Tau40 P301L protein (human); test: cell-based or functional assay
[2] = biological target: T1, Tau40 P301L protein (human); test: cell-based or functional assay; remark: listed apart in the source

Binder | IC50, Tau40 assay (ThT) [1] | IC50, Tau40 assay (ThT) [2]
[dR][dL][dK][dV][dW][dW] [rlkvww] | 7.01 µM | 
[dI][dH][dY][dH][dL][dK][dI][dR] [ihyhlkir] | 9.7 µM | 
[dW][dK][dV][dW]G[dK][dV][dW] (not fully specified (residue 5); printed as wkvwgkvw) [wkvwgkvw] | 10.4 µM and 10.6 µM | 
[dF][dK][dL][dK][dL][dW][dW][dF] [fklklwwf] | 7.22 µM and 15 µM | 
[dW][dR][dE][dK][dV][dR][dW][dW] [wrekvrww] | 19.3 µM | 
[dK][dL][dK][dI][dV][dW] [klkivw] | 6.9 µM | 
[dR][dI][dR][dL][dH][dW] [rirlhw] | 6.97 µM | 
[dNle][dR][dL][dK][dV][dR][dW] [urlkvrw (PEPTIDE ID NO: 282)] |  | 1.63 µM
[dW][dR][dH][dK][dH][dR][dW] [wrhkhrw] | 19.2 µM | 
[dW][dR][dL][dR][dI][dH][dE] [wrlrihe] | 10 µM | 
[dL][dK][dA][dR][dI][dH][dY][dH] [lkarihyh] | 10.4 µM | 
[dNle][dK][dI][dR][dI][dH][dY] [ukirihy (PEPTIDE ID NO: 203)] |  | 0.73 µM
[dE][dK][dI][dR][dI][dH][dY][dH] [ekirihyh] | 7.42 µM | 
[dL][dK][dI][dR][dCha][dH][dY] [lkirbhy (PEPTIDE ID NO: 228)] |  | 0.9 µM
[dW][dW][dL][dK][dL][dR][dW][dW] [wwlklrww] | 7.64 µM | 
[dL][dK][dT][dR][dI][dH][dY] [lktrihy] | 12.5 µM | 
[dW][dR][dT][dK][dT][dR][dW] [wrtktrw] | 8.93 µM | 

Binder | IC50, Tau40 assay (ThT) [1] | IC50, Tau40 assay (ThT) [2]
[dI][dL][dK][dI][dV][dW] [ilkivw] | 9.32 µM | 
[dW][dR][dNle][dK][dV][dR][dW] [wrukvrw (PEPTIDE ID NO: 258)] |  | 1.25 µM
[dW][dE][dL][dK][dV][dE][dW] [welkvew] | 10 µM | 
[dR][dL][dW][dV][dR][dW] [rlwvrw] | 8.02 µM | 
[dL][dK][dCha][dR][dI][dH][dY] [lkbrihy (PEPTIDE ID NO: 252)] |  | 1.16 µM
[dW][dK][dV][dW]G[dR][dV][dW] (not fully specified (residue 5); printed as wkvwgrvw) [wkvwgrvw] | 8.42 µM and 14.1 µM | 
[dCha][dR][dL][dK][dV][dR][dW] [brlkvrw (PEPTIDE ID NO: 293)] |  | 1.82 µM
[dF][dK][dL][dH][dL][dK][dH][dY] [fklhlkhy] | 7.19 µM and 7.53 µM | 
[dW][dF][dL][dR][dI][dH][dW] [wflrihw] | 8.71 µM | 
[dF][dR][dL][dK][dI][dR][dW] [frlkirw] | 11.7 µM and 12.2 µM | 
[dA][dW][dA][dK][dV][dR][dW] [awakvrw] | 8.38 µM | 
[dE][dR][dL][dR][dI][dH][dW] [erlrihw] | 9.9 µM | 
[dT][dL][dK][dI][dE][dW] [tlkiew] | 8.08 µM | 
[dCha][dK][dI][dR][dI][dH][dY] [bkirihy (PEPTIDE ID NO: 249)] |  | 1.09 µM
[dW][dR][dL][dK][dCha][dR][dW] [wrlkbrw (PEPTIDE ID NO: 307)] |  | 2.11 µM
[dW][dD][dL][dD][dV][dR][dW] [wdldvrw] | 14 µM | 
[dW][dE][dV][dQ][dV][dE][dW] [wevqvew] | 11.7 µM | 

Other lines, results leading:

IC50, Tau40 assay (ThT) [1] | IC50, Tau40 assay (ThT) [2] | Binder
15.4 µM |  | [dL][dK][dR][dR][dI][dH][dY][dH] [lkrrihyh]
7.92 µM |  | [dW][dE][dL][dK][dV][dR][dW] [welkvrw]
7.46 µM |  | [dT][dW][dR][dL][dV][dL] [twrlvl]
13.7 µM and 14.3 µM |  | [dT][dI][dK][dL][dV][dW] [tiklvw]
8.33 µM and 10.1 µM |  | [dW][dD][dL][dR][dL][dQ][dY][dW] [wdlrlqyw]
11.2 µM |  | [dA][dR][dL][dK][dA][dR][dW] [arlkarw]
 | 1.65 µM | [dW][dR][dCha][dK][dV][dR][dW] [wrbkvrw (PEPTIDE ID NO: 286)]
16 µM and 16.6 µM |  | [dE][dL][dK][dI][dV][dW] [elkivw]
7.28 µM and 7.56 µM |  | [dF][dW][dL][dR][dI][dH][dW][dF] [fwlrihwf]
19 µM and 19.8 µM |  | [dW][dK][dV][dP][dV][dR][dY][dW] [wkvpvryw]
 | 1.59 µM | [dL][dK][dNle][dR][dI][dH][dY] [lkurihy (PEPTIDE ID NO: 279)]
14.3 µM and 19.5 µM |  | [dF][dE][dL][dE][dI][dE][dW][dH] [feleiewh]
18.5 µM |  | [dW][dR][dL][dK][dV][dR] [wrlkvr]
 | 1.43 µM | [dL][dK][dI][dR][dNle][dH][dY] [lkiruhy (PEPTIDE ID NO: 267)]
 | 2.12 µM | [dW][dR][dL][dK][dNle][dR][dW] [wrlkurw (PEPTIDE ID NO: 308)]
15.1 µM |  | [dW][dR][dL][dK][dV] [wrlkv]
6.97 µM |  | [dW][dI][dK][dI][dV][dR] [wikivr]
9.91 µM and 10.8 µM |  | [dW][dK][dL][dK][dL][dW][dW][dW] [wklklwww]
12.6 µM |  | [dA][dR][dA][dR][dI][dH][dW] [ararihw]
12.7 µM |  | [dW][dR][dA][dK][dA][dR][dW] [wrakarw]
19.5 µM |  | [dL][dK][dI][dA][dI][dH][dY][dH] [lkiaihyh]
7.39 µM |  | [dI][dR][dI][dH][dY][dH][dL][dK] [irihyhlk]
19.7 µM |  | [dL][dE][dF][dE][dL][dK][dY][dW] [lefelkyw]
10.3 µM |  | [dF][dK][dI][dE][dI][dE][dY][dH] [fkieieyh]
8.14 µM |  | [dL][dK][dI][dR][dI][dE][dY][dH] [lkirieyh]
 | 1.65 µM | [dL][dK][dNle][dR][dNle][dH][dY] [lkuruhy (PEPTIDE ID NO: 287)]
